Test results published in doi:10.1101/2020.01.30.926501 (bioRxiv, 2020).

Target: the molecule itself
Test: single-molecule GFP fluorescence intensity

| Protein | stoichiometry N |
| --- | --- |
| Kif14(768)-eGFP (domain or fragment, human, UniProt Q15058 1-768, looked up) MSLHSTHNRNNSGDILDIPSSQNSSSLNALTHSSRLKLHLKSDMSECENDDPLLRSAGKVRDINRTYVISASRKTADMPLTPNPVGRLALQRRTTRNKESSLLVSELEDTTEKTAETRLTLQRRAKTDSAEKWKTAEIDSVKMTLNVGGETENNGVSKESRTNVRIVNNAKNSFVASSVPLDEDPQVIEMMADKKYKETFSAPSRANENVALKYSSNRPPIASLSQTEVVRSGHLTTKPTQSKLDIKVLGTGNLYHRSIGKEIAKTSNKFGSLEKRTPTKCTTEHKLTTKCSLPQLKSPAPSILKNRMSNLQVKQRPKSSFLANKQERSAENTILPEEETVVQNTSAGKDPLKVENSQVTVAVRVRPFTKREKIEKASQVVFMSGKEITVEHPDTKQVYNFIYDVSFWSFDECHPHYASQTTVYEKLAAPLLERAFEGFNTCLFAYGQTGSGKSYTMMGFSEEPGIIPRFCEDLFSQVARKQTQEVSYHIEMSFFEVYNEKIHDLLVCKDENGQRKQPLRVREHPVYGPYVEALSMNIVSSYADIQSWLELGNKQRATAATGMNDKSSRSHSVFTLVMTQTKTEFVEGEEHDHRITSRINLIDLAGSERCSTAHTNGDRLKEGVSINKSLLTLGKVISALSEQANQRSVFIPYRESVLTWLLKESLGGNSKTAMIATISPAASNIEETLSTLRYANQARLIVNIAKVNEDMNAKLIRELKAEIAKLKAAQRNSRNIDPERYRLCRQEITSLRMKLHQQERDMAEMQRV | 2 |
| Kif5b-GFP (domain or fragment, human, UniProt P33176 1-905, looked up) MADLAECNIKVMCRFRPLNESEVNRGDKYIAKFQGEDTVVIASKPYAFDRVFQSSTSQEQVYNDCAKKIVKDVLEGYNGTIFAYGQTSSGKTHTMEGKLHDPEGMGIIPRIVQDIFNYIYSMDENLEFHIKVSYFEIYLDKIRDLLDVSKTNLSVHEDKNRVPYVKGCTERFVCSPDEVMDTIDEGKSNRHVAVTNMNEHSSRSHSIFLINVKQENTQTEQKLSGKLYLVDLAGSEKVSKTGAEGAVLDEAKNINKSLSALGNVISALAEGSTYVPYRDSKMTRILQDSLGGNCRTTIVICCSPSSYNESETKSTLLFGQRAKTIKNTVCVNVELTAEQWKKKYEKEKEKNKILRNTIQWLENELNRWRNGETVPIDEQFDKEKANLEAFTVDKDITLTNDKPATAIGVIGNFTDAERRKCEEEIAKLYKQLDDKDEEINQQSQLVEKLKTQMLDQEELLASTRRDQDNMQAELNRLQAENDASKEEVKEVLQALEELAVNYDQKSQEVEDKTKEYELLSDELNQKSATLASIDAELQKLKEMTNHQKKRAAEMMASLLKDLAEIGIAVGNNDVKQPEGTGMIDEEFTVARLYISKMKSEVKTMVKRCKQLESTQTESNKKMEENEKELAACQLRISQHEAKIKSLTEYLQNVEQKKRQLEESVDALSEELVQLRAQEKVHEMEKEHLNKVQTANEVKQAVEQQIQSHRETHQKQISSLRDEVEAKAKLITDLQDQNQKMMLEQERLRVEHEKLKATDQEKSRKLHELTVMQDRREQARQDLKGLEETVAKELQTLHNLRKLFVQDLATRVKKSAEIDSDDTGGSAAQKQKISFLENNLEQLTKVHKQLVRDNADLRCELPKLEKRLRATAERVKALESALKEAKENASRDRKRYQQEVDRIKEA | 2 |
